# Laboratory results from the DeepSol protein solubility set.
# Test: soluble on expression in E. coli; label from the status in PepcDB or PDB records
row,Sequence,soluble on expression in E. coli
1,MNDYIVVKCGGSMLEQLNDVFFDCIKKLQQQYKVVIVHGGGPEIDAKLKDCNINVEKRDGLRVTPKEVMDVVQMVLCGSTNKKFVMNLQKHNLLAVGCSGCDGKLLQVQPVSEEIGYVGEVSYVETALLKGLINMNYIPVIAPIGIHDNEIYNINADTAAAGIAAALSAKELILITDVDGILHEGKLVKKTDESEIATLIEKGVITGGMIPKVQAALASLKMGVQKISIVNGTKDFTEDTGECIGMTVTRGVSIV,not soluble
2,MGSDKIHHHHHHASPGPGEIANTQARHIATFFPGRMTGSPAEMLSADYLRQQFTQMGYQSDIRTFNSRFIYTTKDNRKNWHNVTGSTVIAAHEGRVPQQIIIMAHLDTYAPQSDADVDANLGGLTLQGMDDNAAGLGVMLELAARLKDIPTHYGIRFIATSGEEEGKLGAENLLKRMSDAEKKNTLLVINLDNLIVGDKLYFNSGKNTPEAVRTLTRDRALAIARRYGIAANTNPGRNPSYPKGTGCCNDAEVFDKAGISVLSVEATNWNLGKKDGYQQRVKNASFPNGNSWHDVRLDNQQHIDKALPGRIERRSRDVVRIMLPLVKELAKAEKTS,not soluble
3,MGSDKIHHHHHHMKLLWFAHRDIKHPKAGGAERTIYEVGKRLSKLNIGVNLVTVNPGNLLEYENVDGIIIYRIKGNIRTHLYVRKMIKKINPDVIIDDMGHAVPWFSPWFTDKRVIVFFRHLHAKSLPGQVNFFLAKIITLVEKLYPIIYKNNIFVTESDTSENDLIDLGIKKDRIVRIPPGVDLNLFHTGKKTDNVQLLYFGGLRKYKRPEYAITIYENLYKKIDNLKLIIVGDGILLNEIKDKVKGKNYNIVFTGKLEYDELAKIIRESWVNLHFSVTEGWGYSILEASASGTPSVAFKVPGVVDTIIDGYNGFLVNNINEFTDKILYIIKNEDKFILNSRKFAENFTWEKTADLWYKLLNGN,not soluble
4,MGSDKIHHHHHHMAINYGVFTISLDFEMYWGVRDKRAISDYAVNLEGIRPAIAGMLDIFTEFNVHATWATVGFLFFRNSEHLSANLPKAIPTYTDINLSPYEYIKNKKLDDRYHFAPDLIQKIISTSGQEVASHTFSHYYCLEDGQTIDQFESDLALAVDTASRLGYKLSSLVFPRNQWNSEYLSVLNKYNIKSFRGNELNWMNSASGQEGQSYFKRAARLLDSYINISGFNTHDISTCLENKPFNFPSSRFLRPYNKKLSFFDCLKLRRIKKAMTHAAKNNELFHLWWHPHNFGAETSKNLDMLREILDHYQYLNKNFGMRSLNMEELSFLEKAYD,not soluble
5,MEVDTASSRHSTVLKRKATDSINEILNYGQSSTSPQKRCKKAASLHKYRDMETYHKIIKTYKAPTWYGCAVSPRDLADYGWACVKKDCVKCIECEQYLSTVLPNICKVSFNVYNSSLQDIHEKMTTAHRTTCKLRCGAPPFRIVEPTAKEVMDGIQRRLSDSKKIIDEDLKADIPSDVNLPKIEGVPEQLIYVAALGWHVSMPKRGSLLFGCDNCARELAIRCGNKFDPIHNHERWCPRIEMDDHGEPSWQSDLNTVLNTKNHVTNRYTGSSIFKEAYAARRLLDSSLSTIITPNYI,not soluble
6,MKVRNVIIGFMVASLTGCSMGHRDPVEIKQTLDKSINENGGLLLADLPASVQADLMPELNTPHVEVEEPVKRFRVRANGVGAKAFFTSLVKGTEYSVVIHPQVSGRITMNLSDVTMDDVLSSVEDLYGYDIVKAGKVLQVYPATIRTETIPVDYLQLTRKGRSLTTITTGSITNSDNNSSNNNNSSSKSNNNSSSSSSSATGGTEIETTSESDFWKELETAISVMIGNGADRSVVVSPQASVVTITASPDELRKVKQFLGTSHKRLQRQVILEAKLLEVTLSDGYQQGINWSNLTASLGGTDVVFGQTSGLVQGALPGMDTIGTLLGGQTNITVSDGNFQAVLSFMDTQGDLNVLSSPRVTAANNQKAVIKVGRDEYYVTEVSSVTGSGDNSNASPEVTLTPFFSGISLDVTPQIDDKGNVMLHVHPSVIDVENEVKEIDLGDVGGVLKLPLAKSSIRESDSVIRAKSGDVVVIGGLMKSQTVDQVSKVPLLGDVPALGHLFRNVSQLTQKTELVILLKPTVVGVDTWQEELERSRDLLQEWFPDELEHHHHHH,soluble
7,MGSDKIHHHHHHMSQQRPDRIKQMLHYLWQHRHLSTQQAIELFGYAEATVRRDFHYIASRYPGMVRGHGCIDFDDSTEDKEYVFDVKRTLQSEAKREIAALARTFIKDGDCFFLDSGSTCLELAKCLVDAKVKVICNDIKIANELGGFPHVESYIIGGLIRPGYFSVGESLALEMINAFAVERAFISCDALSIETGITNATMFEVGVKTRIIQRSREVILMADHSKFDTVEPHAVATLSCITTILSDSALPSAIARRYQQAGCRLIMSDPSSGAR,not soluble
8,SVHKPSGQIMAVKRIRSTVDEKEQKQLLMDLDVVMRSSDCPYIVQFYGALFREGDCWICMELMSTSFDKFYKYVYSVLDDVIPEEILGKITLATVKALNHLKENLKIIHRDIKPSNILLDRSGNIKLCDFGISGQLVDSIAKTRDAGCRPYMAPERIDPSASRQGYDVRSDVWSLGITLYELATGRFPYPKWNSVFDQLTQVVKGDPPQLSNSEEREFSPSFINFVNLCLTKDESKRPKYKELLKHPFILMYEERTVEVACYVCKILDQMPATPSSPMYVD,soluble
9,AGPGAEEEQLDTAEIAFQVKEQLLKHNIGQRVFGHYVLGLSQGSVSEILARPKPWRKLTVKGKEPFIKMKQFLSDEQNVLALRTIQVR,soluble
10,MGSDKIHHHHHHTIVSCSDDKGEDGYNPNLPVRISELSPQEGGYFDKVILQGENFGNNPKKVRVFFNKKEAIVVGASGDRVLVHVPKLPGDDCKIGMLLNGNTTDTIFAEKHFAYEKNYQLIYVAGQLNSNTETFVEGSLETTTFANSMQHLACDPSGVIYMNHKNQVKVAVLFTLMNLRTTLSFWIMEHLLKTEARLALRIMMTKQRRFTSVRTMLHFFGKLILRIHGLL,not soluble
11,MGSDKIHHHHHHMTVLHSPEPDIDPAILLEAADWLVLLQSGEATERDRMALAHWRERNPAHEAAWRRAENMLSTFDQVPPKLGHDTFSHLGNPGRRQMLRLGLLALAMPAAWITWRHSPWQEWVADLRTATGEQKLIDLNDGTHLVLNTTSAANVAFTTAERRLILLAGEILVTTGRDPSPVSRPFIVQTAHGSLRALGTRFTVRHFDDRTQVAVLEGAVEVHPAVSIQTTVLRAGEQMTFTGLDMQPVRPVEASTTLWEHGMLLARDMHLGELIAELNRYHRGVLRCDPSVASLAISGAFPVTDIPASLALLETTLPIRISSTTSWWITVQAR,not soluble
12,MGSDKIHHHHHHMKKKNTTPTPHDATFRQFLTQPDIARDFMELHLPAELRAICDLSTLKLESGSFVEDDLRQYFSDVLYSLKTTAGDGYIHVLVEHQSTPDKHMAFRLIRYAVAAMQRHLEAGHKKLPLVIPVLFYTGKRSPYPYSTRWLDEFDDTALADKLYSSAFPLVDVTVIPDDEIAGHRSMAALTLLQKHIHQRDLAELVDRLAPILLAGYLSSSQVISLVHYIVQAGETSDAEAFVRELAQRVPQHGDALMTIAQQLEQKGIEKGIQLGEQRGIEKGRSEGEREATLKIARTMLQNCIDRNTVMKMTGLTEDDLAQIRH,not soluble
13,MTISVEKPIFEEEVSAFEKSGDNIGELKLDGGFSMPKMDTNDDEAFLAPEMNAFGRQFRDYDVESERQKGVEEFYRLQHINQTVDFVKKMRAEYGKLDKMVMSIWECCELLNEVVDESDPDLDEPQIQHLLQSAEAIRKDYPNEDWLHLTALIHDLGKVITLPQFGGLPQWAVVGDTFPVGCAFDESNVHHKYFVENPDFHNETYNTKNGIYSEGCGLNNVMMSWGHDDYMYLVAKENGSTLPSAGQFIIRYHSFYPLHTAGEYTHLMNEEDKENLKWLHVFNKYDLYSKSKVHVDVEKVKPYYMSLIKKYFPENLRW,soluble
14,MSLNIPDEGFFTLLTQGMRNRTVETLQRALYHTLRDAILQGTLTARCRLPGSRVMAERLHLSRNTVNAALEQLALEGYLTRSRQGTQVAPLASCRQEAGQMPPVVLPERLQRLPAAMRRDSPTLAFTPGMPAVNYFPLPLWRRLMDNVLREDGSALLGYGEAAGDPLLREAIARHLALSRGIRCDIRQIVITEGALEGVNLCASLLTNPGDSVWLEEPGYLGAWSGFQRAGLRVRGMAVDDEGMCIANGVAEPPRLIFTSPSHQYPCGSIMSAGRRLALVEYARRHGAWIVEDDYDSEFRHSGEPIPAMLGMVPDAPVVYLGTFSKTLFPALRIGFMVMPPALADAAQDAIGALLRGGHRAEQRALASFIEKGHYARHLAAMRRLYRKRQQQLREALAQEITVPCDVLGGGGGMHLTVAMEGVNDRTLAQQARQFQLAPAALSHFYLDPQRARSGLVLGYGNTSASRYLPALRTLNRLIAQHRRAEGHHHHHH,not soluble
